The record followed here is paper PMC11586170, “Amino-functionalized vertically ordered mesoporous silica film on electrochemically polarized screen-printed carbon electrodes for the construction of gated electrochemical aptasensors and sensitive d”.

This data set addresses carcinoembryonic antigen (CEA) (UniProt P06731 35-685). Description: electrochemical aptasensor (DPV, Fe(CN)6 3-/4- probe); aptamer immobilized on BSA-blocked NH2-VMSF/p-SPCE; linear range 100 fg/mL-100 ng/mL, LOD 24 fg/mL (not an affinity); aptamer immobilized in 0.01 M PBS pH 7.4 (4 C, 90 min), BSA block 0.1 wt%; CEA incubation 60 min; CEA binding buffer and temperature not in the material. The settings on record: protein: commercial.

Sequence of carcinoembryonic antigen (CEA) (P06731 35-685): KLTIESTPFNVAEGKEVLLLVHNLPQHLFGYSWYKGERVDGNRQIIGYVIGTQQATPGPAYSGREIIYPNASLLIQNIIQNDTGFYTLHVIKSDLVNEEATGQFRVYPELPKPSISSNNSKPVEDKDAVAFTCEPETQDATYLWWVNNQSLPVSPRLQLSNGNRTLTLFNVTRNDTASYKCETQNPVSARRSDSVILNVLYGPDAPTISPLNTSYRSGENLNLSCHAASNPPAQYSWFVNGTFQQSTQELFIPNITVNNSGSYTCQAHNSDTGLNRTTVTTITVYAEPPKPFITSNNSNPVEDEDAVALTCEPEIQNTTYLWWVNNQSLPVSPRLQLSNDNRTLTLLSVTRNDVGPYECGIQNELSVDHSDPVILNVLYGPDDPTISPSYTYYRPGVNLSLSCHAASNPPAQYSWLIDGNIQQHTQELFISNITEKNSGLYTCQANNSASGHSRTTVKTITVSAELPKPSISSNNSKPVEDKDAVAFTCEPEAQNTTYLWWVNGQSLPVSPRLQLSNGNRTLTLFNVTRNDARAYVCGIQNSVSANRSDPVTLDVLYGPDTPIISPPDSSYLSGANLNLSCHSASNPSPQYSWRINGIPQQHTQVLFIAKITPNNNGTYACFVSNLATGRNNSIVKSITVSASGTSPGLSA

Regarding ATACAGCTTCAATT (ssDNA, 3'-NH2) [amino-modified CEA aptamer (Apt)], the binding result is listed as “binds”.
